US6008014

Molecular target: GST-tchvs10a1 fusion protein (plasmid pGEX-4T-2-S10A1) (human)
Assay: BIAcore (SPR); GST-tchvs10a1 captured on anti-GST antibody as ligand, GST-SR-BI at 200 nM as analyte

response (RU): 220 RU
Substance: GST-SR-BI cytoplasmic domain fusion protein (plasmid pGEX-4T-1-7-5j) (from UniProt Q8WTV0)
